Measurements: US20130102527A1 (TRUSTEES OF DARTMOUTH COLLEGE, published 2013)
Where two headings read alike, the source gives them in different places. Non-standard residues stand in square brackets, D forms with d. Primed or numbered codes have the meaning given here. No end group written: not given here. *: point of attachment. N3‑Phe = N-terminal azido-phenylalanine, [N-]=[N+]=N[C@@H](Cc1ccccc1)C(=O)*; HMB = 3-hydroxy-2-methylbenzoyl cap, Cc1c(O)cccc1C(=O)*; Phe(4-N3) = [N-]=[N+]=Nc1ccc(C[C@H](N)C(=O)O)cc1; Phe(4-CH2NH2) = NCc1ccc(C[C@H](N)C(=O)O)cc1; Phe(4-NH2) = Nc1ccc(C[C@H](N)C(=O)O)cc1; N3Phe = N-terminal azido-phenylalanine; 4Pal = N[C@@H](Cc1ccncc1)C(=O)O; VS″ = vinyl sulfone (warhead); VS = vinyl sulfone warhead; EK = epoxyketone warhead; ek = epoxyketone warhead

Assays:
[1] = target: T1, proteasome β1 subunit (caspase-like site) in human cells and cell extracts (human, UniProt P28072 35-239); experiment: labelling and competition assay in HEK-293T lysate, fluorescence gel
T1 construct: mature; also called Casp-L; caspase-like sites
T1 sequence (P28072 35-239): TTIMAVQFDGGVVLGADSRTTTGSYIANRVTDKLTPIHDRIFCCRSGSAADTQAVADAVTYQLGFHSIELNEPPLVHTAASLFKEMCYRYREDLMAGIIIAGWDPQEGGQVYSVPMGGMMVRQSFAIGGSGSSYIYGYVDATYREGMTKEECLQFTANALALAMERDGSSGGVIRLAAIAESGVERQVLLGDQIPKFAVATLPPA

[2] = target: T2, caspase-like site (β1 subunit) of 26S proteasomes purified from rabbit muscle (rabbit); experiment: cell-based or functional assay
[3] = target: T3, trypsin-like site (β2 subunit) of 26S proteasomes purified from rabbit muscle (rabbit, UniProt G1SWK8 44-271); experiment: cell-based or functional assay
T3 sequence: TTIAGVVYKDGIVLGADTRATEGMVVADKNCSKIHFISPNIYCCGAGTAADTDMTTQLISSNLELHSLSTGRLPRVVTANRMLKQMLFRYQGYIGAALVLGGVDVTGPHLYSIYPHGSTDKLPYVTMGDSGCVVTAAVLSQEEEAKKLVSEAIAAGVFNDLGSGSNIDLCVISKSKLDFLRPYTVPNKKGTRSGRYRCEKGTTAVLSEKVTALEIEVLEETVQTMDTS

[4] = target: T4, chymotrypsin-like site (β5 subunit) of 26S proteasomes purified from rabbit muscle (rabbit, UniProt G1T4Q9 60-263); experiment: cell-based or functional assay
T4 sequence: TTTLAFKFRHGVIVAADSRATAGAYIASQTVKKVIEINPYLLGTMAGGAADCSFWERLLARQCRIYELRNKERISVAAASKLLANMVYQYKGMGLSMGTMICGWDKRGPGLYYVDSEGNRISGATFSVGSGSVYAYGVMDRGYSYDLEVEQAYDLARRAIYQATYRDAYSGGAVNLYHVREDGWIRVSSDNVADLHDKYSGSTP

[5] = target: T4, chymotrypsin-like site (β5 subunit) of …; experiment: cell-based or functional assay; remark: listed apart in the source
[6] = target: T3, trypsin-like site (β2 subunit) of 26S …; experiment: cell-based or functional assay; remark: listed apart in the source
[7] = target: T5, proteasome β5 subunit (chymotrypsin-like site) in human cells and cell extracts (human, UniProt P28074 60-263); experiment: competition with activity-based probe in living HEK-293 cells, 4 h; Chym-L site
T5 construct: mature; also called Chym-L; chymotrypsin-like sites

[8] = target: T1, proteasome β1 subunit (caspase-like …); experiment: cell-based or functional assay
[9] = target: T2, caspase-like site (β1 subunit) of 26S …; experiment: cell-based or functional assay; remark: listed apart in the source
[10] = target: T3, trypsin-like site (β2 subunit) of 26S …; experiment: cell-based or functional assay; remark: listed apart in the source
[11] = target: T5, proteasome β5 subunit …; experiment: cell-based or functional assay
[12] = target: T6, trypsin-like site (β2 subunit) of yeast 20S proteasome (S. cerevisiae, UniProt P25043 30-261); experiment: cell-based or functional assay
T6 sequence (looked up): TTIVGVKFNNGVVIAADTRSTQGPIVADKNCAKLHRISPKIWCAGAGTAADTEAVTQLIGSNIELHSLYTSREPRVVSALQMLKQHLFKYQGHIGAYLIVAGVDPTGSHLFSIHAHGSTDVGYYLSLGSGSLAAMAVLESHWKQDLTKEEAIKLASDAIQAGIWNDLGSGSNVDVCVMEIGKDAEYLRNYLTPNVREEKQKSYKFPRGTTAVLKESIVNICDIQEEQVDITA

[13] = target: T7, chymotrypsin-like site (β5 subunit) of yeast 20S proteasome (S. cerevisiae, UniProt P30656 76-287); experiment: cell-based or functional assay
T7 sequence (looked up): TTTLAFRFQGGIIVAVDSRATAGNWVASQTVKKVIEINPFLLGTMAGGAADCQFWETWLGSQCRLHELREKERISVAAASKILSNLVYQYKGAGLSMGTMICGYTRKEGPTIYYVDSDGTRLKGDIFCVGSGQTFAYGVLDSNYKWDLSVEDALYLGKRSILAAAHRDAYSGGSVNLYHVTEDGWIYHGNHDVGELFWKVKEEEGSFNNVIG

[14] = target: T6, trypsin-like site (β2 subunit) of yeast …; experiment: cell-based or functional assay; remark: listed apart in the source

B1: BODIPY-triazole-Phe-Leu-Leu-Phe(4-CH2NH2)-VS TFA salt (39) (peptide)
peptide: {BODIPY‑triazole}-FLL[Phe(4-CH2NH2)]-{VS″}
modifications: also: TFA salt
notes: Fluorescent probe made from compound 4a; also called compound 39
B1: no binding [1].

[Phe(4-N3)]LL[Phe(4-CH2NH2)]-{EK} (also: TFA salt) [N3Phe-Leu-Leu-Phe(4-CH2NH2)EK TFA salt (4b)] was tested, and the “IC50 (µM) for sites in 26S proteasomes: Casp-L” value [2] was 11 µM and the “IC50 (µM) for sites in 26S proteasomes: Tr-L” value [3] was 0.25 µM.

[N3Phe]LL[Phe(4-NH2)]-{VS} [N3-Phe-Leu-Leu-Phe(4-NH2)-VS (45a)] was tested, and the “IC50 (µM) for sites in 26S proteasomes: Chym-L” value [4] was 0.04 µM and the “IC50 (µM) for sites in 26S proteasomes: Casp-L” value [2] was 23 µM.

With Ac-Leu-Leu-Arg-ek [NC-002 (Ac-Leu-Leu-Arg-ek)] the “IC50 (µM) for sites in 26S proteasomes: Chym-L” value [4] was > 30 µM, the “IC50 (µM) for sites in 26S proteasomes: Casp-L” value [2] was > 30 µM and the “IC50 (µM) for sites in 26S proteasomes: Tr-L” value [3] was 1 µM.

For [N3Phe][4Pal]L[Phe(4-CH2NH2)]-{VS} (also: TFA salt) [N3-Phe-Ala(4-pyridine)-Leu-Phe(4-CH2NH2-TFA)-VS (50)], the “IC50 (µM) for sites: Chym-L” value [5] was 1.05 µM, the “IC50 (µM) for sites: Tr-L” value [6] was 0.012 µM and the IC50 [7] was > 50 µM. The “IC50 (µM) for sites: Casp-L; NCI-H929 cells, 6 h, PROTEASOMEGLO” value [8] was > 30 µM.

{HMB}-Val-Ser-[Phe(4-CH2NH2)]-{VS} [HMB-Val-Ser-Phe(4-CH2NH2)-VS (48)] was tested, and the “IC50 (µM) for sites in 26S proteasomes: Casp-L” value [9] was 11 µM, the “IC50 (µM) for sites in 26S proteasomes: Tr-L” value [10] was 0.25 µM and the “IC50 (µM) for sites: Casp-L; NCI-H929 cells, 6 h, PROTEASOMEGLO” value [8] was > 30 µM. For the same binder, the “IC50 (µM) for sites: Casp-L; RPMI-8226 cells, 6 h, PROTEASOMEGLO” value [8] was > 30 µM.

With [Phe(4-N3)]LL[Phe(4-NH2)]-{EK} [N3-Phe-Leu-Leu-Phe(4-NH2)-EK (45b)] the “IC50 (µM) for sites in 26S proteasomes: Chym-L” value [4] was 0.01 µM, the “IC50 (µM) for sites in 26S proteasomes: Casp-L” value [2] was > 30 µM and the “IC50 (µM) for sites in 26S proteasomes: Tr-L” value [3] was 1.8 µM.

{HMB}-Val-Ser-Arg-ek [NC-022 (HMB-Val-Ser-Arg-ek)] was tested, and the “IC50 (µM) for sites in 26S proteasomes: Casp-L” value [9] was 16 µM, the “IC50 (µM) for sites in 26S proteasomes: Tr-L” value [10] was 0.0038 µM and the “IC50 (µM) for sites: Chym-L; NCI-H929 cells, 6 h, PROTEASOMEGLO” value [11] was > 30 µM. For the same binder, the “IC50 (µM) for sites: Chym-L; RPMI-8226 cells, 6 h, PROTEASOMEGLO” value [11] was > 30 µM, the “IC50 (µM) for sites: Casp-L; NCI-H929 cells, 6 h, PROTEASOMEGLO” value [8] was > 30 µM and the “IC50 (µM) for sites: Casp-L; RPMI-8226 cells, 6 h, PROTEASOMEGLO” value [8] was > 30 µM.

For [N3‑Phe][Phe(4-CH2NH2)]L[Phe(4-CH2NH2)]-{VS} [N3-Phe-Phe(4-CH2NH2)-Leu-Phe(4-CH2NH2)-VS (52)], the “fold potency against yeast trypsin-like sites relative to 4a” value [12] was > 4000 fold, the “IC50 (µM) for yeast 20S proteasome: Chym-L” value [13] was 6.1 µM and the “IC50 (µM) for yeast 20S proteasome: Tr-L” value [14] was 0.00055 µM.
